Literature values as cited in paper PMC3274258.
“And” between values parts separate entries of the source, which are not always exact repeats. Equal entries are not always repeated. Where two headings read alike, the source gives them in different places. One block for each substance: values may come before it.

Experiments:
Asp193 = Asp193 (UniProt position 193, LTPTVDVALIV); conditions: dark (ground) state
[1] = molecular target: Salinibacter transducer of SRI (SrHtrI); test: pH titration experiments (ref 123; detection not specified in the review)
Asp76 = Asp76 (UniProt position 76, GLRYIDWLVTT)
[2] = molecular target: Halobacterial transducer of SRI (HsHtrI); test: not stated in the review (pKa determination quoted from ref 124); conditions: pH
[3] = molecular target: Halobacterial transducer of SRII, truncated (NpHtrII, pHtrII) (UniProt P42259); test: not stated in the review (pKa determination of ref 50); conditions: pH
Asp72 = test: pH titration; the review does not name the technique, and UV-vis absorption of the retinal chromophore is inferred; conditions: dark state
[4] = molecular target: HtrII (Natronomonas pharaonis) (UniProt P42259)
[5] = molecular target: HtrII (Natronomonas pharaonis) (UniProt P42259); remark: listed apart in the source
[6] = molecular target: HtrII (Natronomonas pharaonis) (UniProt P42259); remark: listed apart in the source

Sequence of SRII (P42196 whole entry): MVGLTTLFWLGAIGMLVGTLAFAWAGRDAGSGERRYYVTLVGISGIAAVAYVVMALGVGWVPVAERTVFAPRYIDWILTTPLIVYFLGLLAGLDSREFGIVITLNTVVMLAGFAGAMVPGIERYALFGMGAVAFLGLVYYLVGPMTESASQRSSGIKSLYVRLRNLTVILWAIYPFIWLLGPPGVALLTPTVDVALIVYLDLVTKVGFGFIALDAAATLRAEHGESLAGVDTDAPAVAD
Sequence of HtrII (Natronomonas pharaonis) (P42259 whole entry): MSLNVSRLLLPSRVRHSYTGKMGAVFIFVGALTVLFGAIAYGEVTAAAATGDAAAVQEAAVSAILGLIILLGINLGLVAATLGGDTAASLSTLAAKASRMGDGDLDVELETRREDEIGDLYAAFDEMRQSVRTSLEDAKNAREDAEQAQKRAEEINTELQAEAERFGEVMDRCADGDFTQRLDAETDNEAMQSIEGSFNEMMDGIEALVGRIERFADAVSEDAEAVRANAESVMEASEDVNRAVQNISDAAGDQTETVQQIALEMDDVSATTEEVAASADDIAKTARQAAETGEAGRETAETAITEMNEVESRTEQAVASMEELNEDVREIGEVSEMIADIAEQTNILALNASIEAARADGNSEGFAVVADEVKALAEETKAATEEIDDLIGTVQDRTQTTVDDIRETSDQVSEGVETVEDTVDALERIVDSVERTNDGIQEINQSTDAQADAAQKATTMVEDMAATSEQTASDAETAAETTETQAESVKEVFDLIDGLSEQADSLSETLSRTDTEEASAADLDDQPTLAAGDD
Sequence of Halobacterial transducer of SRII, truncated (NpHtrII, pHtrII) (P42259 whole entry, the tested form may be a part): as the sequence (P42259 whole entry) above

Substance: Sensory rhodopsin II (NpSRII; pharaonis phoborhodopsin, ppR) (Natronomonas pharaonis)
pKa (Asp193; NpSRII bound to truncated NpHtrII (1-114 or 1-159)): 5.6 | pKa (Asp193; NpSRII transducer-free): 6.4

Substance: Sensory rhodopsin I (HsSRI) (Halobacterium salinarum)
pKa (Asp76; HsSRI associated with HsHtrI): 8.5 | pKa (Asp76; HsSRI without HsHtrI): 7.2

Substance: SrSRI-SrHtrI fusion (Salinibacter sensory rhodopsin I fused to its full-length transducer) (Salinibacter ruber)
pKa (Asp72; SrSRI associated with SrHtrI (fusion construct)): 4.9

Substance: SRII (from UniProt P42196)
Kd [4]: 15 µM | Kd [5]: 0.16 µM | Kd [6]: 5 µM

Substance: Salinibacter sensory rhodopsin I (SrSRI) (Salinibacter ruber)
pKa (Asp72; SrSRI without SrHtrI): 4.3

The remaining lines, values ahead:

pKa, Asp72 of SrSRI (Schiff-base counterion) [1]: 4.3 pH units and 4.9 pH units
Substance: Salinibacter sensory rhodopsin I (SrSRI)

pKa, Asp76 of HsSRI (Schiff-base counterion) [2]: 7.2 pH units and 8.5 pH units
Substance: Sensory rhodopsin I (HsSRI)

pKa, Asp193 of NpSRII [3]: 6.4 pH units and 5.6 pH units
Substance: Sensory rhodopsin II (NpSRII, pharaonis phoborhodopsin, ppR)
